# B1: IIA1: parent mouse IgG1 class anti-α5β1 antibody shown to inhibit α5β1 integrin binding to fibronectin (antibody, V domains shown)
# VH: MAVLGLLLCLVTFPSCVLSQVQLKESGPGLVAPSQSLSITCTISGFSLTDYGVHWVRQPPGKGLEWLVVIWSDGSSTYNSALKSRMTIRKDNSKSQVFLIMNSLQTDDSAMYYCARHGTYYGMTTTGDALDYWGQGTSVTVSS
# VL: MDFQVQIFSFLLISASVIMSRGQIVLTQSPAIMSASLGERVTMTCTASSSVSSNYLHWYQQKPGSAPNLWIYSTSNLASGVPARFSGSGSGTSYSLTISSMEAEDAATYYCHQYLRSPPTFGGGTKLEIK
# modifications: mus muscalus
# B2: M200: chimeric IgG4 anti-α5β1 antibody derived from IIA1; generic name volociximab (antibody, V domains shown)
# VH: B1 VH
# VL: MDFQVQIFSFLLISASVIMSRGQIVLTQSPAIMSASLGERVTMTCTASSSVSSNYLHWYQQKPGSAPNLWIYSTSNLASGVPARFSGSGSGTSYSLTISSMEAEDAATYYCHQYLRSPPTFGGGTKLEIKDMSVDMSV
# modifications: chimeric antibody
# notes: chimeric IgG4 anti-α5β1 antibody derived from IIA1; generic name volociximab
# Assays:
# [1] = system: human NW231 tumors; assay: NW231 xenograft tumor establishment, IIA1 with DOXIL; assay type: in vivo, SCID mice; conditions: 24 days post-implant (control TIB ~425 mm^3)
# Method: The following experiment was conducted in order to determine the efficacy of the anti-α5β1 integrin antibody, IIA1 in combination with the chemotherapeutic agent, DOXIL®, for preventing establishment of human NW231 tumors in vivo. DOXIL® is a liposome encapsulated formulation of doxorubicin HCl, a cytotoxic anthracycline antibiotic isolated from Streptomyces peucetius. The NW231 cell line originated from breast cancer and is considered a good model for studying treatments for breast cancer.
# Four to six week old female SCID mice obtained from Taconic Farms and maintained in micro-isolator cages were inoculated in the mammary fat pads with 1×10^7 NW231 cells. Animals received either TIB control (n=20) or […] (n=20) at 5 mg/kg for the first injection at the time of tumor cell inoculation. Subsequent treatments were at 0.7 mg/kg per injection. DOXIL® treatment was commenced 5 days post tumor cell inoculation. Chemotherapeutic doses were at 4 mg/kg for the first injection and at 2 mg/kg for subsequent injections. Reagents were delivered by intraperitoneal injection for four doses. Tumor volume was measured twice weekly and clinical and mortality observations were performed daily according to IACUC regulations.
# [2] = molecular target: α5β1 integrin binding to fibronectin (Homo sapiens, UniProt P05556+P08648); conditions: cited from earlier work
# [3] = system: C8161; assay: M200 in vitro cell proliferation assay; assay type: cell-based; conditions: C8161 (melanoma), 4-day assay
# Method: (§1) Cancer cell lines were plated at a density of 2500 cells/well in 96-well plates in IMDM with supplements in the presence or absence of 10% FBS. At the time of plating, cells were challenged with various concentrations M200 or a non-function blocking anti-α5 antibody, VC5. Four days later, cell viability was assessed by the CellTiter 96 AQueous Non-Radioactive Cell Proliferation Assay (Promega) according to the manufacturer's instructions. All growth studies were done at least 3 times in triplicate.
# [4] = system: HT1376; assay: M200 in vitro cell proliferation assay; assay type: cell-based; conditions: HT1376 (bladder), 4-day assay
# Method: as §1
# [5] = pharmacokinetic studies in cynomolgus monkeys; assay type: in vivo
# [6] = molecular target: α5β1 integrin found in rabbit (Oryctolagus cuniculus, UniProt A0A5F9C3C4+A0A5F9CXX2); assay: species cross-reactivity of anti-α5β1 antibody; assay type: binding
# [7] = system: VX2 carcinoma; assay: M200 VX2 rabbit tumor efficacy study; assay type: in vivo
# Method: Starting on Day 5, tumor dimensions (Length, Width and Height) were measured in millimeters via electronic vernier calipers connected to a laptop computer at a minimum frequency of twice weekly. For consistency, the same trained technician performed the tumor measurements throughout the course of the study. Tumor volume was calculated using the formula: Length×Width×Height×0.52. Upon animal termination, tumors were carefully excised, trimmed and weighed. In addition, animals were weighed a minimum of once weekly. Representative samples of each tumor were preserved in sample cassette in formalin or OCT and flash frozen in liquid nitrogen.
# Rabbits (30 total) were inoculated, either subcutaneously or intramuscularly with either a VX2 cell suspension (100 μl) or pieces of tumor (˜5-10 mm^3). The test group of 20 was treated with M200 at 10 mg/kg intravenously, twice weekly for 3 weeks. The control group of 10 animals was treated with a control IgG delivered by the same method as the M200. Tumor measurements, termination, weighing, tumor preservation and study duration were carried out according to the methods described above for the Pilot Study. In addition, one milliliter of blood was taken from an ear vessel on a weekly basis for serum analysis.
# [8] = predicted human serum levels of M200 from monkey PK data; set-up: species or system humans
# Method: At the highest dose in humans (15.0 mg/kg), the mean peak after 5 doses was predicted to be 592 μg/mL with the range of variability in humans predicted as 320 to 829 μg/mL. Table 3, was compiled using PK data from the monkey studies to predict the peak and tough serum concentrations (Cmax and Cmin, respectively) for each dose at each dose level in humans.
# [9] = system: angiogenesis; conditions: rabbit eye model; cited from earlier work
# α5β1 integrin found in rabbit, sequence (A0A5F9CXX2 1-1041): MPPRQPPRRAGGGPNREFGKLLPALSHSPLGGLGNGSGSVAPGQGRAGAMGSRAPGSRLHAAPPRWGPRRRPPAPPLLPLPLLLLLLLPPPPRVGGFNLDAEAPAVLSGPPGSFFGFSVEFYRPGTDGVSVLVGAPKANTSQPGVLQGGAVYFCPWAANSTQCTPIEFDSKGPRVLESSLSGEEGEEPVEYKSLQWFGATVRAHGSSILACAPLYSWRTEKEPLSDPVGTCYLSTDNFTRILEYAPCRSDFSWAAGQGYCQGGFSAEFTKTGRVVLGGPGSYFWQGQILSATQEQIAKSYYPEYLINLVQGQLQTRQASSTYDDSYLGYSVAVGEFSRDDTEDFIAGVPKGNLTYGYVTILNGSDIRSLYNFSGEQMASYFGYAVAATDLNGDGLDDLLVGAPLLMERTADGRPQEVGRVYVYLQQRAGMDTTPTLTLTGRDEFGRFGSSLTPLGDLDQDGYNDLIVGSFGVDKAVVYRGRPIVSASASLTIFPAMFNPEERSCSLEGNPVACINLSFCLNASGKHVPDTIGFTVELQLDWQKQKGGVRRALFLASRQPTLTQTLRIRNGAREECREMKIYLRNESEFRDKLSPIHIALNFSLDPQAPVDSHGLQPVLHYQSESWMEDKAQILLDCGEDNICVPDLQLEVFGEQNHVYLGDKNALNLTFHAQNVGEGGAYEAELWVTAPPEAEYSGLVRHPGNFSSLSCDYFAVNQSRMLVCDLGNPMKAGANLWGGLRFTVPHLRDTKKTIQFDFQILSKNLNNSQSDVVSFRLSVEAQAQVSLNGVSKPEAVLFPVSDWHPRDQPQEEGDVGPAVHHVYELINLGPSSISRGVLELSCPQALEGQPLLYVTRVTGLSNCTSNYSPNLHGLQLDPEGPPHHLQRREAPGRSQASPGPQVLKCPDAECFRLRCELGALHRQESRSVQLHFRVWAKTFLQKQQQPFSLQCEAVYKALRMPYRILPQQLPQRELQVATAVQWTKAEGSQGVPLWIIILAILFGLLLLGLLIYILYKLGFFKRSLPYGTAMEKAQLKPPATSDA
# α5β1 integrin found in rabbit, sequence (A0A5F9C3C4 21-798): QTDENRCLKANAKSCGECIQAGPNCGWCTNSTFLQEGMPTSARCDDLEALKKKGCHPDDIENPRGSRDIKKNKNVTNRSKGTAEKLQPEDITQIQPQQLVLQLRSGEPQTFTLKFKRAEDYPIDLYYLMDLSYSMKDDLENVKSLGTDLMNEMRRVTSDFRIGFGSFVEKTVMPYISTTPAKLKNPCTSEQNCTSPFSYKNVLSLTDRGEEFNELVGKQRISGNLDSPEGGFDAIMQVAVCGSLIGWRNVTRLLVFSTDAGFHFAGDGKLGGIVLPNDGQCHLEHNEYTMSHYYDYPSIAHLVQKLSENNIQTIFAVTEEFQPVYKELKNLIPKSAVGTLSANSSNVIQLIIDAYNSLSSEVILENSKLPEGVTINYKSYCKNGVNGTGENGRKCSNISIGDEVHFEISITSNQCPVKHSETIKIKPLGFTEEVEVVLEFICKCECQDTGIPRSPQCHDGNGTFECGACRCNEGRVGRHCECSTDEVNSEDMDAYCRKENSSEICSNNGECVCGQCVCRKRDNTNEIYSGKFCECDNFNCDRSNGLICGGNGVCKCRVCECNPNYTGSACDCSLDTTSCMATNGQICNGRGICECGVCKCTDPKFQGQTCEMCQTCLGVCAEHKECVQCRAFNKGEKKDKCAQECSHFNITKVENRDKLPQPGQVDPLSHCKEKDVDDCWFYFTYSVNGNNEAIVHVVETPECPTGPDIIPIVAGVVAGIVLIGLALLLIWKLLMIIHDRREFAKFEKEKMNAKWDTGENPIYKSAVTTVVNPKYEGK
# α5β1 integrin binding to fibronectin, sequence (P08648 42-894 limits assumed): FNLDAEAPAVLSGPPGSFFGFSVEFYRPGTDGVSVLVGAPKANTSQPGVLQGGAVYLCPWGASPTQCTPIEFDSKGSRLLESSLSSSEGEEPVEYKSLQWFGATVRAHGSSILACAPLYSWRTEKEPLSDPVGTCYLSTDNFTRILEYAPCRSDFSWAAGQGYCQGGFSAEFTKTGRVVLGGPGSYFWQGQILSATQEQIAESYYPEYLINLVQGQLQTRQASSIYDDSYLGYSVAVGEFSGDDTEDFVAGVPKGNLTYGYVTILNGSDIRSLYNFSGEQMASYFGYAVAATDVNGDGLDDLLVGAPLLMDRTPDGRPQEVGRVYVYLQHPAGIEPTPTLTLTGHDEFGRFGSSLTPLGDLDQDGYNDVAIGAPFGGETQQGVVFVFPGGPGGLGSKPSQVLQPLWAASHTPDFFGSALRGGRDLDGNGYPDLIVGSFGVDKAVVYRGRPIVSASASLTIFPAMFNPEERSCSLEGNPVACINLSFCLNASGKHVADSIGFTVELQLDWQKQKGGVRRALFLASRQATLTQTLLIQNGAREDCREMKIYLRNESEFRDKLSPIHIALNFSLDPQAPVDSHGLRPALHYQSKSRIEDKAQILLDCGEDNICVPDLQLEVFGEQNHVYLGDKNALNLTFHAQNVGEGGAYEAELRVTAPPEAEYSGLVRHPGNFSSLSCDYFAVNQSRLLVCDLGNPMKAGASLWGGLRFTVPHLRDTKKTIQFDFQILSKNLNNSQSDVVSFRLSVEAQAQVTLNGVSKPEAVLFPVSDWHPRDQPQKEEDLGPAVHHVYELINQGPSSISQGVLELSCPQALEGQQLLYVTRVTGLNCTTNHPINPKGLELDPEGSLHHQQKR
# α5β1 integrin binding to fibronectin, sequence (P08648 895-1049 limits assumed): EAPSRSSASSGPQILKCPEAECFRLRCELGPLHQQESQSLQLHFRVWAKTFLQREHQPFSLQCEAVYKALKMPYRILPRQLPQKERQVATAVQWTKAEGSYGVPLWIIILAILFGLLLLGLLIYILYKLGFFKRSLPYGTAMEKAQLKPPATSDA
# α5β1 integrin binding to fibronectin, sequence (P05556 21-798): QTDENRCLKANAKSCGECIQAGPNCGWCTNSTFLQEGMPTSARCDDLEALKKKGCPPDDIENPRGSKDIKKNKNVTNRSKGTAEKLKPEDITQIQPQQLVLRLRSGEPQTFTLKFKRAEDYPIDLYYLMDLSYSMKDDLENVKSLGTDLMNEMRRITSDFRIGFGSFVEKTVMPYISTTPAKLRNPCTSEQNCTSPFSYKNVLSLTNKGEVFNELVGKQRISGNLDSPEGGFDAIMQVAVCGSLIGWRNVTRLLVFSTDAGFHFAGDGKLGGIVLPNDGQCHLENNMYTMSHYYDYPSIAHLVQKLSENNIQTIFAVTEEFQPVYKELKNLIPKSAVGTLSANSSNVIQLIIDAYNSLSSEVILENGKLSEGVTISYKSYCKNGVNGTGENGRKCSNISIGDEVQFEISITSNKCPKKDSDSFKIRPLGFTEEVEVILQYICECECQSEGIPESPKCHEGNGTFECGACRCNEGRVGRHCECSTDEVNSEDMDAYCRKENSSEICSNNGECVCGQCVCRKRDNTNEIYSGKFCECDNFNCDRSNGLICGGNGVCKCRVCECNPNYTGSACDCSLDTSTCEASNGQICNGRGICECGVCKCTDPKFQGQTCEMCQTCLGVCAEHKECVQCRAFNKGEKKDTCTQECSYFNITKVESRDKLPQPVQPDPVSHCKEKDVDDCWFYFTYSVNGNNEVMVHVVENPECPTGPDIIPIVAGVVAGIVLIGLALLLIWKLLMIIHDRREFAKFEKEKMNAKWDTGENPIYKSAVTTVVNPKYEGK
molecule,measurement,setting,value
B1,mean tumor volume,[1],~175 mm^3
same,inhibition of α5β1 integrin binding to fibronectin,[2],inhibit α5β1 integrin binding to fibronectin
B2,% Growth Inhibition +Serum,[3]; 10% FBS,0%
same,% Growth Inhibition −Serum,[3]; absence of serum,0%
same,% Growth Inhibition +Serum,[4]; 10% FBS,0%
same,% Growth Inhibition −Serum,[4]; absence of serum,0%
same,mean peak level (serum),[5]; 50 mg/kg after 4 weekly doses,1862 µg/mL
same,range of peak level (serum),[5]; 50 mg/kg after 4 weekly doses,1000 to 2606 µg/mL
same,toxicity,"[5]; at peak serum concentrations after 50 mg/kg, 4 weekly doses",no toxicity
same,recognition of α5β1 integrin found in rabbit,[6],does recognize
same,circulating level of M200 at which tumor growth was inhibited,[7]; rabbit VX2 model,≥ 50 µg/mL
same,VX2 tumor growth,"[7]; rabbit, 10 mg/kg intravenously, twice weekly for 3 weeks",able to inhibit tumor growth
same,immunogenicity,"[7]; rabbits, immune response as early as two weeks, eventually all animals seroconvert",immunogenic in rabbits
same,Estimated peak serum level (Cmax) in humans,"[8]; 0.5 mg/kg, dose number 1",11 µg/mL
same,Estimated trough serum level (Cmin) in humans,"[8]; 0.5 mg/kg, dose number 1",1.5 µg/mL
same,Estimated peak serum level (Cmax) in humans,"[8]; 0.5 mg/kg, dose number 2",11 µg/mL
same,Estimated trough serum level (Cmin) in humans,"[8]; 0.5 mg/kg, dose number 2",1.6 µg/mL
same,Estimated peak serum level (Cmax) in humans,"[8]; 0.5 mg/kg, dose number 3",12 µg/mL
same,Estimated trough serum level (Cmin) in humans,"[8]; 0.5 mg/kg, dose number 3",2 µg/mL
same,Estimated peak serum level (Cmax) in humans,"[8]; 0.5 mg/kg, dose number 4",13 µg/mL
same,Estimated trough serum level (Cmin) in humans,"[8]; 0.5 mg/kg, dose number 4",2.1 µg/mL
same,Estimated peak serum level (Cmax) in humans,"[8]; 0.5 mg/kg, dose number 5",13 µg/mL
same,Estimated trough serum level (Cmin) in humans,"[8]; 0.5 mg/kg, dose number 5",2.2 µg/mL
same,Estimated peak serum level (Cmax) in humans,"[8]; 1.0 mg/kg, dose number 1",22 µg/mL
same,Estimated trough serum level (Cmin) in humans,"[8]; 1.0 mg/kg, dose number 1",3 µg/mL
same,Estimated peak serum level (Cmax) in humans,"[8]; 1.0 mg/kg, dose number 2",22 µg/mL
same,Estimated trough serum level (Cmin) in humans,"[8]; 1.0 mg/kg, dose number 2",3 µg/mL
same,Estimated peak serum level (Cmax) in humans,"[8]; 1.0 mg/kg, dose number 3",25 µg/mL
same,Estimated trough serum level (Cmin) in humans,"[8]; 1.0 mg/kg, dose number 3",4 µg/mL
same,Estimated peak serum level (Cmax) in humans,"[8]; 1.0 mg/kg, dose number 4",26 µg/mL
same,Estimated trough serum level (Cmin) in humans,"[8]; 1.0 mg/kg, dose number 4",5 µg/mL
same,Estimated peak serum level (Cmax) in humans,"[8]; 1.0 mg/kg, dose number 5",26 µg/mL
same,Estimated trough serum level (Cmin) in humans,"[8]; 1.0 mg/kg, dose number 5",5 µg/mL
same,Estimated peak serum level (Cmax) in humans,"[8]; 2.5 mg/kg, dose number 1",54 µg/mL
same,Estimated trough serum level (Cmin) in humans,"[8]; 2.5 mg/kg, dose number 1",9 µg/mL
same,Estimated peak serum level (Cmax) in humans,"[8]; 2.5 mg/kg, dose number 2",57 µg/mL
same,Estimated trough serum level (Cmin) in humans,"[8]; 2.5 mg/kg, dose number 2",10 µg/mL
same,Estimated peak serum level (Cmax) in humans,"[8]; 2.5 mg/kg, dose number 3",64 µg/mL
same,Estimated trough serum level (Cmin) in humans,"[8]; 2.5 mg/kg, dose number 3",13 µg/mL
same,Estimated peak serum level (Cmax) in humans,"[8]; 2.5 mg/kg, dose number 4",67 µg/mL
same,Estimated trough serum level (Cmin) in humans,"[8]; 2.5 mg/kg, dose number 4",14 µg/mL
same,Estimated peak serum level (Cmax) in humans,"[8]; 2.5 mg/kg, dose number 5",68 µg/mL
same,Estimated trough serum level (Cmin) in humans,"[8]; 2.5 mg/kg, dose number 5",15 µg/mL
same,Estimated peak serum level (Cmax) in humans,"[8]; 5.0 mg/kg, dose number 1",108 µg/mL
same,Estimated trough serum level (Cmin) in humans,"[8]; 5.0 mg/kg, dose number 1",20 µg/mL
same,Estimated peak serum level (Cmax) in humans,"[8]; 5.0 mg/kg, dose number 2",114 µg/mL
same,Estimated trough serum level (Cmin) in humans,"[8]; 5.0 mg/kg, dose number 2",24 µg/mL
same,Estimated peak serum level (Cmax) in humans,"[8]; 5.0 mg/kg, dose number 3",132 µg/mL
same,Estimated trough serum level (Cmin) in humans,"[8]; 5.0 mg/kg, dose number 3",33 µg/mL
same,Estimated peak serum level (Cmax) in humans,"[8]; 5.0 mg/kg, dose number 4",141 µg/mL
same,Estimated trough serum level (Cmin) in humans,"[8]; 5.0 mg/kg, dose number 4",39 µg/mL
same,Estimated peak serum level (Cmax) in humans,"[8]; 5.0 mg/kg, dose number 5",147 µg/mL
same,Estimated trough serum level (Cmin) in humans,"[8]; 5.0 mg/kg, dose number 5",43 µg/mL
same,Estimated peak serum level (Cmax) in humans,"[8]; 10.0 mg/kg, dose number 1",216 µg/mL
same,Estimated trough serum level (Cmin) in humans,"[8]; 10.0 mg/kg, dose number 1",51 µg/mL
same,Estimated peak serum level (Cmax) in humans,"[8]; 10.0 mg/kg, dose number 2",236 µg/mL
same,Estimated trough serum level (Cmin) in humans,"[8]; 10.0 mg/kg, dose number 2",66 µg/mL
same,Estimated peak serum level (Cmax) in humans,"[8]; 10.0 mg/kg, dose number 3",282 µg/mL
same,Estimated trough serum level (Cmin) in humans,"[8]; 10.0 mg/kg, dose number 3",101 µg/mL
same,Estimated peak serum level (Cmax) in humans,"[8]; 10.0 mg/kg, dose number 4",317 µg/mL
same,Estimated trough serum level (Cmin) in humans,"[8]; 10.0 mg/kg, dose number 4",131 µg/mL
same,Estimated peak serum level (Cmax) in humans,"[8]; 10.0 mg/kg, dose number 5",346 µg/mL
same,Estimated trough serum level (Cmin) in humans,"[8]; 10.0 mg/kg, dose number 5",156 µg/mL
same,predicted terminal half-life in humans,[8]; 15.0 mg/kg,about 13 days
same,Estimated Cmax range (54-140%) in humans,"[8]; 15.0 mg/kg, dose number 1",175 to 453 µg/mL
same,Estimated peak serum level (Cmax) in humans,"[8]; 15.0 mg/kg, dose number 1",324 µg/mL
same,Estimated trough serum level (Cmin) in humans,"[8]; 15.0 mg/kg, dose number 1",91 µg/mL
same,Estimated Cmax range (54-140%) in humans,"[8]; 15.0 mg/kg, dose number 2",197 to 512 µg/mL
same,Estimated peak serum level (Cmax) in humans,"[8]; 15.0 mg/kg, dose number 2",366 µg/mL
same,Estimated trough serum level (Cmin) in humans,"[8]; 15.0 mg/kg, dose number 2",126 µg/mL
same,Estimated Cmax range (54-140%) in humans,"[8]; 15.0 mg/kg, dose number 3",243 to 629 µg/mL
same,Estimated peak serum level (Cmax) in humans,"[8]; 15.0 mg/kg, dose number 3",450 µg/mL
same,Estimated trough serum level (Cmin) in humans,"[8]; 15.0 mg/kg, dose number 3",200 µg/mL
same,Estimated Cmax range (54-140%) in humans,"[8]; 15.0 mg/kg, dose number 4",283 to 733 µg/mL
same,Estimated peak serum level (Cmax) in humans,"[8]; 15.0 mg/kg, dose number 4",524 µg/mL
same,Estimated trough serum level (Cmin) in humans,"[8]; 15.0 mg/kg, dose number 4",268 µg/mL
same,Estimated peak serum level (Cmax) in humans,"[8]; 15.0 mg/kg, dose number 5",592 µg/mL
same,Estimated trough serum level (Cmin) in humans,"[8]; 15.0 mg/kg, dose number 5",332 µg/mL
same,predicted time to steady state concentration,[8]; all doses <10.0 mg/kg,≤ 4 weeks
same,predicted time to steady state concentration,[8]; doses ≧10.0 mg/kg,≤ 5 weeks
same,in vivo anti-angiogenic efficacy,[9],in vivo anti-angiogenic efficacy

# Reference: patent publication US7662384B2, “Use of anti-α5β1 antibodies to inhibit cancer cell proliferation” (Facet Biotech Corporation, priority 2004, dated 2010)
